The text below walks through data of article PMC5065005 (The FEBS journal, 2016).

The data set concerns the molecule itself. Put plainly: 1D 1H NMR spectra at increasing protein concentration.

B1: human FBxo3 ApaG domain, residues 278–407 (domain or fragment, UniProt Q9UK99 278-407, looked up)
chain: VATTGDITVSVSTSFLPELSSVHPPHYFFTYRIRIEMSKDALPEKACQLDSRYWRITNAKGDVEEVQGPGVVGEFPIISPGRVYEYTSCTTFSTTSGYMEGYYTFHFLYFKDKIFNVAIPRFHMACPTFR
As to B1, the binding result is reported as “binds”.
